The values below come from PMC9019020, “Low complexity RGG-motif sequence is required for Processing body (P-body) disassembly” (Nature Communications, 2022).

In the experiment the target is T1, His-Edc3-mCherry (S. cerevisiae, UniProt P39998 1-551).
T1 construct: Edc3, P-body protein of S. cerevisiae with Lsm, FDF and YjeF-N domains; full length; also called full-length Edc3; purified Edc3; source: E. coli BL21, purified (Ni-NTA agarose, batch; RNase A added during purification); not shown: His, N-terminal, kept; mCherry, C-terminal, kept
T1 sequence (looked up): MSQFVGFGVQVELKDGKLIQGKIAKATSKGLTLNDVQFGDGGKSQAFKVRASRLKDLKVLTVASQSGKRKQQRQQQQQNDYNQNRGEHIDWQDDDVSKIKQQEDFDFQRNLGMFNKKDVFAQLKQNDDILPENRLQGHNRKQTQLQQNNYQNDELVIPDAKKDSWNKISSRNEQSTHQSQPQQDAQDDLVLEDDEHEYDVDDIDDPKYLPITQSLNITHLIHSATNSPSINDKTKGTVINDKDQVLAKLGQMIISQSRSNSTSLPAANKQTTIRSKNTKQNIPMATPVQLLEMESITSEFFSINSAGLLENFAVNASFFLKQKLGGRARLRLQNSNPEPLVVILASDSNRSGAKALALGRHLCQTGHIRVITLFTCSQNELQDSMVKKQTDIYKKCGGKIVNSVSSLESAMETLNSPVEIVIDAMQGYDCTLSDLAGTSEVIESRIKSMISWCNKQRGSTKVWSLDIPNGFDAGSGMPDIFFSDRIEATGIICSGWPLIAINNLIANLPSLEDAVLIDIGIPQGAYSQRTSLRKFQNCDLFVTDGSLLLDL
The experiment in a line: pull-down; RFP magnetic agarose beads (Chromotek) capture Edc3-mCherry; 100 pmol of each purified protein; 4 °C, 2 h; 50 mM HEPES pH 7, 100 mM NaCl, 1 mM DTT, 2 mM MnCl2, 2 mM MgCl2, 1% Triton-X100, 10% glycerol, 0.25 mg/mL RNase A; western blot. As to conditions: both partners purified. Background: A western blot detects proteins with antibodies after separation by electrophoresis.

B1: His-Sbp1-FLAG (natural protein, S. cerevisiae, UniProt P10080 1-294, looked up)
chain: MSAEIEEATNAVNNLSINDSEQQPRAPTHKTVIDPEDTIFIGNVAHECTEDDLKQLFVEEFGDEVSVEIPIKEHTDGHIPASKHALVKFPTKIDFDNIKENYDTKVVKDREIHIKRARTPGQMQRGGFRGRGGFRGRGGFRGGFRGGYRGGFRGRGNFRGRGGARGGFNGQKREKIPLDQMERSKDTLYINNVPFKATKEEVAEFFGTDADSISLPMRKMRDQHTGRIFTSDSANRGMAFVTFSGENVDIEAKAEEFKGKVFGDRELTVDVAVIRPENDEEEIEQETGSEEKQE
notes: Sbp1, RGG-motif containing translation repressor of S. cerevisiae; wild type; also called wild-type Sbp1; purified Sbp1; source: E. coli BL21, purified (Ni-NTA agarose, batch; RNase A added during purification); not shown: His, N-terminal, kept; FLAG, C-terminal, kept
In the case of B1, the binding result is given as “binds”.
